Measured values taken from paper PMC5789857 (Nature Communications, 2018).

Target: TBEV envelope protein (E-protein), strain Hypr, in the purified virion (tick-borne encephalitis virus, strain …, UniProt Q01299)
Test: cell-based or functional assay

B1: Fab fragment of neutralizing mouse monoclonal antibody 19/1786 (Fab, V domains shown)
VH: EVKLEESGGGLVQPGGSLKLSCAASGFTFSSYGMSWVRQTPDKRLELVAATNSDGDSTYYPDSVKGRFTISRDRAKNTLYLQMSSLKSEDTAMYYCTRVLYDYDGEFAYWGQGTLVTVSA
VL: DIVMTQSQKFMSTSVGDRVTVTCKASQNVGTNVAWYQQKPGQSPKGLIYSASYRYSGVPDRFIGSGSGTDFTLTISNVQSGDLAEYFCQQYNNHPLTFGAGTKLELK
neutralisation of TBEV (cytolysis of porcine kidney stable cells), EC50: 35 µg/mL
